Patent publication US20210388105A1 (ELPISCIENCE SUZHOU BIOPHARMA, published 2021)
Like-named read-outs stand apart in the source and are kept apart here.

T1: cynomolgus CD39 (full length, on CHOK1-cynoCD39 cells) (cynomolgus monkey, UniProt A0A7N9DGH8 1-510)
T1 construct: whole, on cells; also called cCD39
T1 sequence: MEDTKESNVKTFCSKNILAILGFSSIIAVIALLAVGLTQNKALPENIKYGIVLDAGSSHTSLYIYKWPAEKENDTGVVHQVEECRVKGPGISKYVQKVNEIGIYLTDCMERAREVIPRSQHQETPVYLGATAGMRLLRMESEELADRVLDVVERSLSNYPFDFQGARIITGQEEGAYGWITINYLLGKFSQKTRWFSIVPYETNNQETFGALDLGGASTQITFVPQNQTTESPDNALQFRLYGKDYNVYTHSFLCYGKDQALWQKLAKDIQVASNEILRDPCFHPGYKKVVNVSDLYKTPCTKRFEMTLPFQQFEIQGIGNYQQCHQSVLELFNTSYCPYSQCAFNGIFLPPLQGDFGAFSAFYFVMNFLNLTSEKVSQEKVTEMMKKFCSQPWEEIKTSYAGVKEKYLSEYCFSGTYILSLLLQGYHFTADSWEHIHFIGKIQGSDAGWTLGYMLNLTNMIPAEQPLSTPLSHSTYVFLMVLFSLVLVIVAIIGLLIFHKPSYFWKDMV

T2: human CD39 (full length, on cells) (human, UniProt P49961 1-510)
T2 sequence: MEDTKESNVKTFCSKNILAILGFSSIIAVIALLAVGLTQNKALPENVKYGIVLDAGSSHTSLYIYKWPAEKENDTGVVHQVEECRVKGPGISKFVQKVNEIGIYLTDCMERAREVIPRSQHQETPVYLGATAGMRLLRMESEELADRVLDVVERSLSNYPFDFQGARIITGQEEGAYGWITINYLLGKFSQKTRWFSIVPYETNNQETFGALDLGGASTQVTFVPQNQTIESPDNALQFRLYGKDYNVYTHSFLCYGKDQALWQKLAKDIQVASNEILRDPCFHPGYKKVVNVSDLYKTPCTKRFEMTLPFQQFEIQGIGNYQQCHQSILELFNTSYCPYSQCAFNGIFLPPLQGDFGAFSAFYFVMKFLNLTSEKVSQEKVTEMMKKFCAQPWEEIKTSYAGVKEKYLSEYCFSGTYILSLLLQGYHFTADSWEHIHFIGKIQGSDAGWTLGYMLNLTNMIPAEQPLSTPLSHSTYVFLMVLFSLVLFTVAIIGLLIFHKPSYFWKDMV


Experiments:
[1] = biological target: T1, cynomolgus CD39 (full length, on …); experiment: FACS, CHOK1-cynoCD39 cells
Protocol: CHOK1-hCD39, CHOK1-cCD39, CHOK1-mCD39 and CHOK1-blank cells were maintained in culture medium according to ATCC procedure. Cells were collected and re-suspended in blocking buffer at a density of 3×10⁶ cells/ml. Cells were transferred to 96 well FACS plates at 100 μl/well (3×10⁵ cells/well), the plates were centrifuged and washed twice with FACS buffer (PBS, 1% FBS, 0.05% Tween-20). 4-folds serial dilution of anti-CD39 antibodies were prepared in FACS buffer starting from 30 μg/ml. Reference antibody 9-8B and mouse/human control IgG were used as positive and negative controls, respectively. Cells were re-suspended in 100 μL/well diluted antibodies, and the plates were incubated at 4° C. for 60 min. […] The plates were washed with FACS buffer, and cells were re-suspended in 100 μL/well of PBS. Cells were then analyzed with FACSVerse™ and mean fluorescence intensity were determined. Full binding curves were generated on the CD39 expressing cells by testing a range of antibody concentrations. Apparent affinity was determined for each antibody using Prism software. […]
Reference antibodies T895 and 1394 were tested in parallel as control antibodies. […] Maximum signal (mean fluorescence intensity, MFI) differed between cells for each antibody may result from their different expression level.

[2] = biological target: T2, human CD39 (full length, on cells); experiment: cell-based or functional assay
[3] = biological target: T1, cynomolgus CD39 (full length, on …); experiment: FACS, CHOK1-cynoCD39 cells; remark: listed apart in the source
Description: (§1) FACS were used to determine binding of the antibodies to cell lines expressing CD39 naturally (SK-MEL-28) or recombinantly (CHOK1-hCD39, CHOK1-cynoCD39, and CHOK1-mCD39), or with cells lacking CD39 expression (CHOK1-blank) as a negative control.
CHOK1-hCD39, CHOK1-cCD39, CHOK1-mCD39 and CHOK1-blank cells were maintained in culture medium according to ATCC procedure. Cells were collected and re-suspended in blocking buffer at a density of 3×10⁶ cells/ml. Cells were transferred to 96 well FACS plates at 100 μl/well (3×10⁵ cells/well), the plates were centrifuged and washed twice with FACS buffer (PBS, 1% FBS, 0.05% Tween-20). 4-folds serial dilution of anti-CD39 antibodies were prepared in FACS buffer starting from 30 μg/ml. Reference antibody 9-8B and mouse/human control IgG were used as positive and negative controls, respectively. Cells were re-suspended in 100 μL/well diluted antibodies, and the plates were incubated at 4° C. for 60 min. […] The plates were washed with FACS buffer, and cells were re-suspended in 100 μL/well of PBS. Cells were then analyzed with FACSVerse™ and mean fluorescence intensity were determined. Full binding curves were generated on the CD39 expressing cells by testing a range of antibody concentrations. Apparent affinity was determined for each antibody using Prism software.

[4] = biological target: T2, human CD39 (full length, on cells); experiment: FACS, SK-MEL-28 cells
Protocol: as §1
Similarly, human CD39 expressing cells SK-MEL-5, SK-MEL-28 or MOLP-8, were incubated with a gradient concentration of anti-CD39 antibodies for 30 minutes at 4° C. Cells were washed 3 times using FACS buffer and next incubated with fluorescence labelled secondary antibody (goat-anti-mouse IgG or goat anti-human IgG) for 30 minutes at 4° C. Cells were washed 3 times and then re-suspended in FACS buffer and analyzed by flow cytometry analysis on BD Celesta. Data plotted and analyzed using GraphPad Prism 8.02.

[5] = biological target: T2, human CD39 (full length, on cells); experiment: FACS competition on CHOK1-hCD39; competitor mAb14-Alexa488
Protocol: (§2) Anti-CD39 antibodies were labeled using Alex488 labeling kit and were diluted in a series of concentrations, before mixing with CHOK1-hCD39 cells to test binding EC₅₀using FACS. The non-labeled antibodies were tested for their blocking efficacy to the labelled ones. Briefly, mononuclear CHOK1-hCD39 cells were prepared to 2×10⁶/ml and plated into 96 well at 50 μl/well, then mixed with antibodies gradients to final volume at 100 μl, and then equal volume of Alex488 label antibodies were added at two folds EC80 concentration. 96 well plates were incubated at 4° C. for 1 hour, and spun down and washed 3 times with 200 μl FACS buffer. The FACS analysis was performed on FACScelesta machine and data was analyzed by Flowjo software. The blocking percentages were calculated and those having above 80% competition rate were allocated into one epitope group, compared with the non-competing well (Alex488 labeled antibody only).
(§3) Based on the competition results, the 4 anti-CD39 hybridoma antibodies (mAb14, mAb19, mAb21, mAb23) can be grouped into 4 different epitope groups, as shown in Table 11.

[6] = biological target: T2, human CD39 (full length, on cells); experiment: FACS competition on CHOK1-hCD39; competitor mAb19-Alexa488
Protocol: as §2, §3

Binder	EC50 [1]	SK-MEL-28 cell based ATPase inhibition % at 10 nM [2]	EC50 [3]	EC50 [4]	blocking percentage [5]	blocking percentage [6]
Antibody T895 (antibody, V domains shown, also called 31895) VH: EVQLQQSGPELVKPGASVKMSCKASGYTFTDYNMHWVKQSHGRTLEWIGYIVPLNGGSTFNQKFKGRATLTVNTSSRTAYMELRSLTSEDSAAYYCARGGTRFAYWGQGTLVTVSA VL: not shown	4.19 nM	–	–	–	–	–
mAb14 (antibody, V domains shown, mouse hybridoma antibody) VH: EVKLEESGGGLVQPGGSMKLSCVASGFTFSKYWMNWVRQSPEKGLEWVAEIRLKSNKYGTHYAESVKGRFTISRDDSKNNVYLQMNNLRPEDTGIYYCTTQLDLYWFFDVWGAGTTVTVSS VL: DIVMTQSPAILSVTPGDRVSLSCRASQSISDYLHWYQQKSHESPRLLIKYASQSISGIPSRFSGSGSGSNFTLSINSVEPEDVGVYFCQNGHSLPLTFGAGTKLELR	–	57%	3.4 nM	28 nM	98%	6%

Results, then the binder that gave them:

EC50 [1]	SK-MEL-28 cell based ATPase inhibition % at 10 nM [2]	EC50 [3]	EC50 [4]	blocking percentage [5]	blocking percentage [6]	Binder
3.38 nM	–	–	–	–	–	hu23.H5L5 (antibody, V domains shown, humanized c23) VH: QVQLVQSGAEVKKPGASVKVSCKASGYNLKDTFLHWVRQAPGQGLEWMGRIDPANGNIKYDPKFQGRVTITADTSANTAYMELISLRSEDTAVYYCANSPYYYGSGYRIFDVWGQGTTVTVSS VL: QIVLTQSPATLSLSPGERATLSCSAFSSVNYMHWYQQKPGQAPRLLIYTTSNLASGIPTRFSGSGSGTSYTLTISSLEPEDFAVYYCQQRSTYPFTFGQGTKLEIK
–	21%	1.6 nM	0.8 nM	55%	19%	Antibody 9-8B (antibody, V domains shown) VH: QIQLVQSGPELKKPGETVKISCKASGYTFTHYGMNWVKQAPGKGLKWMGWINTYTGELTYADDFKGRFAFSLETSASTAYLQINNLKNEDTATYFCARRAYYRYDYVMDYWGQGTSVTVSS VL: DIVMTQSQKFMSTSVGDRVSVTCKASHNVGTNVAWYQQKPGQSPKALIYSASYRYSGVPGRFTGSGSGTDFTLTISNVQSEDLAEYFCHQYNNYPYTFGGGTKLEIK
